Test results published in the RNAGym collection of RNA variant scans (doi:10.1073/pnas.2313332121).
Variants at the floor of the assay were thinned out.

B1: TPR 5TU (parent)
chain: GGAUCUUCUCGAUCUAACAAAAAAGACAAAUCUGCCACAAAGCUUGAGAGCAUCUUCGGAUGCAGAGGCGGCAGCCUUCGGUGGCGCGAUAGCGCCAACGUUCUCAACUAUGACACGCAAAACGCGUGCUCCGUUGAAUGGAGUUUAUCAUG

Variants of: B1
Assay: polymerase ribozyme fitness, log enrichment relative to wild type (log ratio); higher = more active; in vitro selection for triplet polymerase activity
Method in brief: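 Mutant libraries were PCR-built and transcribed for each subunit of a heterodimeric triplet polymerase ribozyme and selected for one round in triplicate at −7 °C, frozen, before gel excision of extended constructs and streptavidin-bead capture. Input and output libraries were Illumina-sequenced, keeping genotypes with ≥10 input reads and ≥1 read per output. Fitness is a logarithmic ratio of genotype to wild-type enrichment, in base 2, using inverse-variance-weighted replicate averages.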

| Variant | polymerase ribozyme fitness (log ratio) |
| --- | --- |
| GGAUCUUCUCGAUCUAACAAAAAAGACAAAUCUGCCACAAAGCUUGAGAGCAUCUUCGGAUGCACAGGCGGCAGCCUUCGGUGGCGCGACAGCGCCAACGUUCUCAACUAUGACACGCAAAACGCGUGCUCCGUUGAAUGGAGUUUAUCAUG [G65C U90C] | ≤ -4.2 |
| GGAUCUUCUCGAUCUAACAAAAAAGACAAAUCUGCCACAAAGCUUGAGAGCAUCUUCGGAUGCAAAGGCGGCAGACUUCGUUGGCGCGAUAGCACCAACGUUCUUAACUAUGACACGCAAAACGCGUGCUCCGUUGAAUUGAGUUUAUCAUG [G65A C75A G81U G94A C105U G140U] | -3.7 |
| GGAUCUUCUCGAUCUAACAAAAAAGACAAAUCUGCCACAAAGCUUGAGAGCAUCUUCGGAUGCAAAGGCGGCAGCCUUCGGUGGAGCGAUAGCGCCAACGUUCUCAACUAUGACACGCAAAACGCGUGCUCCGUUGAAUGGAGUUUAUCAUG [G65A C85A] | -2.26 |
| GGAUCUUCUCGAUCUAACAAAAAAGACAAAUCUGCCACAAAGCUUGAGAGCAUCUUCGGAUGCACCGGCGGCAGCCUUCGAUGGGGCGAUAGCGCCAACGUUCUCAACUAUGACACGCAAGACGCGUGCUCCGUUGAAUGGAGUUUAUCAUG [G65C A66C G81A C85G A121G] | -4.16 |
| GGAUCUUCUCGAUCUAACAAAAAAGACAAAUCUGCCACAAAGCUUGAGAGCAUCUUCGGAUGCAUAGGCGCCUGCCUUCGGUGGCGCGAUAGCGCCAACGUUCUCAACUAUGACACGCAAAUCGCAUGCUCCGUUGCAUGGAGUUAAUCAUG [G65U G71C A73U A122U G126A A137C U146A] | ≤ -4.2 |
| GGAUCUUCUCGAUCUAACAAAAAAGACAAAUCUGCCACAAAGCUUGAGAGCAUCUUCGGAUGCAAAGGCGUCAGCCUUCGGUGGAGCGAUAGCGCCAACGUUCUCAACUAUGACACGCAAAACGCGUGCUCCGUUGAAUGGAGUUUAUCAUG [G65A G71U C85A] | ≤ -4.2 |
| GGAUCUUCUCGAUCUAACAAAAAAGACAAAUCUGCCACAAAGCUUGAGAGCAUCUUCGGAUGCACAGGCGGCAGCCUUCGGUGGCGCUAUAGCGCCAACGUUCUCUACUAUGACACGCAAAACGCGUGCUCCGUUGAAUCGAGUUUAUCAUG [G65C G88U A106U G140C] | ≤ -4.2 |
| GGAUCUUCUCGAUCUAACAAAAAAGACAAAUCUGCCACAAAGCUUGAGAGCAUCUUCGGAUGCACAGACGGCAGCCUUCGGUAGCGCGAUAGCGCCAACGUUCUCAACUAUGACUCGCAAAACGCGUGCUCCGUUGAAUAGAGUUUAUCAUG [G65C G68A G83A A115U G140A] | ≤ -4.2 |
| GGAUCUUCUCGAUCUAACAAAAAAGACAAAUCUGCCACAAAGCUUGAGAGCAUCUUCGGAUGCACAGGCGGCAGCCUUCGGUGGCGCGAUAGCGCCAACGUUCUCAACUAUGACACGCAAAACGCGUGCUCGGUUGAAUGGAGUUUAUCAUG [G65C C132G] | ≤ -4.2 |
| GGAUCUUCUCGAUCUAACAAAAAAGACAAAUCUGCCACAAAGCUUGAGAGCAUCUUCGGAUGCAUAGGCGGAAGCCUUCGGUGGAGCGAUAGCGCCAACGUUCUCAACUAUGACACGCAAAACGCGUGCUCCGUGGAAUGGAGUUUAUCAUG [G65U C72A C85A U135G] | ≤ -4.2 |
| GGAUCUUCUCGAUCUAACAAAAAAGACAAAUCUGCCACAAAGCUUGAGAGCAUCUUCGGAUGCACAGGCGGCAGCCUUCGGUGGCGCGAUAGCGCCAAGGUUCUCAACUAUGACACGCAAAACGCGUGCUCCGUUGAAUGGAGUUUAUCAUG [G65C C99G] | ≤ -4.2 |
| GGAUCUUCUCGAUCUAACAAAAAAGACAAAUCUGCCACAAAGCUUGAGAGCAUCUUCGGAUGCAAAGGCGGCAGCCUUCGGUGGCGCGAUAGUGCCAACGUUCUCAACUAUGACACGCAAAACGCGUGCUCCGUUGAAUGGAGUUUAUCAUG [G65A C93U] | -1.96 |
| GGAUCUUCUCGAUCUAACAAAAAAGACAAAUCUGCCACAAAGCUUGAGAGCAUCUUCGGAUGCAUCGGCGGCAGCCAUCGGUGGCGCGAUAGCGCCAACGUUCUCAACUAUGACACGCAAAACGCGUGCUCCGUUGAAUGGAGUUUCUCAUG [G65U A66C U77A A147C] | ≤ -4.2 |
| GGAUCUUCUCGAUCUAACAAAAAAGACAAAUCUGCCACAAAGCUUGAGAGCAUCUUCGGAUGCAAAGGCGGCAGCCUUCGGUGGCGCGAUAGCGCCAACGUUCUUAACUAUGACACGCAAAACGCGUGCUCCGUUGAAUGGAGUUUAUCAUG [G65A C105U] | -0.804 |
| GGAUCUUCUCGAUCUAACAAAAAAGACAAAUCUGCCACAAAGCUUGAGAGCAUCUUCGGAUGCAAACGCGGCAGCCUUCGGUGGCGCGAUAACGCCAACGUUCUCAACUAUGACACGCAAAACGCGUGCUCCGUUGAAUGGAGUUUAUCAUG [G65A G67C G92A] | ≤ -4.2 |
| GGAUCUUCUCGAUCUAACAAAAAAGACAAAUCUGCCACAAAGCUUGAGAGCAUCUUCGGAUGCACAGGCGUCAGCCUUCGGUGGCGCGAUAGCGCCAACGUUCUCAACUAUGACACGCAAAACGCGUGCUCCGUUGAAUGGAGUUUAUCAUG [G65C G71U] | ≤ -4.2 |
| GGAUCUUCUCGAUCUAACAAAAAAGACAAAUCUGCCACAAAGCUUGAGAGCAUCUUCGGAUGCAUAGGCGGCGGCCUUCGGUGGCGCGAUAGCGCCAACGUUCUCAACUAUGACACGCAAAACGCGUGCUCCGUUGAAUGAAGUUUAUCAUG [G65U A73G G141A] | ≤ -4.2 |
| GGAUCUUCUCGAUCUAACAAAAAAGACAAAUCUGCCACAAAGCUUGAGAGCAUCUUCGGAUGCAAAGGCGGCAGCCUUCGGUGGUGCGAUAGCGCCUACGUUCUCAACUAUGACACGCAAAACGCGUGCUCCGUUGAAUGGAGUUUAUCAUG [G65A C85U A97U] | -2.46 |
| GGAUCUUCUCGAUCUAACAAAAAAGACAAAUCUGCCACAAAGCUUGAGAGCAUCUUCGGAUGCACAGGCGGCAGCCUUCGGUGGCGCGCUAACGCCAACGUGCUCAACUAUGACAUGCAAAACGCGUGCUCCGUUGGAUGGAGUUUAUCAUG [G65C A89C G92A U102G C116U A137G] | ≤ -4.2 |
